According to the supplement of paper PMC9170038:

Test system: MS2 coat protein
Assay: apparent KD of MS2 coat protein; designed switch direction (-1 OFF switch, 1 ON switch): 1; higher = weaker reporter binding
How it was run: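 Stalled E. coli RNA polymerase transcribed designed RNA switches on Illumina chips, which were then titrated with SNAP-549-labelled MS2 coat protein, doubling from 0.7 or 1.5 nM to 3 µM. Steps lasted from 0.8–1.5 h at the lowest concentration to 10–20 min at the highest. The apparent KD is each design's median over clusters of curve-fitted normalised fluorescence.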

[1] = input ligand: microRNA oligo, concentration not stated

Sequence | apparent KD of MS2 coat protein (input ligand: FMN 200 uM) [nM] | apparent KD of MS2 coat protein [1] [nM] | apparent KD of MS2 coat protein (input ligand: none) [nM] | apparent KD of MS2 coat protein (Eterna round: R95, input ligand: FMN 200 uM) [nM] | apparent KD of MS2 coat protein (Eterna round: R95, input ligand: microRNA oligo, concentration not stated) [nM] | apparent KD of MS2 coat protein (Eterna round: R95, input ligand: none) [nM]
CCAACAUACAAUUUAAGAUCACAUGAGGAUCACCCAUGUAUGCAGGAUAUCAGCUCGUUUAGAGCUGAGAAGGGCAAUUUAAUU [SSNG3/1-A3] (Eterna round: R96, puzzle: Same State NG 3) | 99 | 158 | 202 |  |  | 
CCAUAACUGUGAGGAUAUUGUUGCGUUUAGUGACGAGAAGGCAUUCAUGUGAUAUAUACAUACAUGAGGAUCACCCAUGUUGUA [NG 1 30P] (Eterna round: R96, puzzle: Same State NG 1) |  | 21.4 |  |  |  | 
CCAUAGUACAAUUUAGAUCUACAUGAGGAUCACCCAUGUACUGAGGAUAUCAGCUCGAAUAGAGCUGAGAAGGCAGAAUUAAUU [SSNG3/5-A1] (Eterna round: R96, puzzle: Same State NG 3) |  | 103 |  |  |  | 
CCCGCGUUUCGCGCCUACAUGAGGAUCACCCAUGUUUGUAGGCAGGAUAUCGUCCGCUCUGCGGGCGAGAAGGGCUGUCGUGGU [salish99_SSNG3_R04_030] (Eterna round: R96, puzzle: Same State NG 3) | 65.7 | 53.5 | 70.1 |  |  | 
CCCUGAGGCAGCCUACAGGGACAUGAGGAUCACCCAUGUACACAGGAUAUCGAGGGCUCCGCCCUCGAGAAGGGUGAUCAGACU [Redied] (Eterna round: R96, puzzle: Same State NG 3) | 321 | 161 | 97.4 |  |  | 
CCGAAAGGAGUAGGAUAUGUAGGAUAUGCCUACAUGAGGAUCACCCAUGUUCGCAUGGCAGAAGGACAGAAGGACACGGAAACG [pwkr ssNG2 2FMN + 1F5.12] (Eterna round: R96, puzzle: Same State NG 2) | 101 | 113 | 293 |  |  | 
CCGAUCUACCGAAAGGUAGAUGGGCUUGUACAUGAGGAUCACCCAUGUCAGUACAAGCUUUUUGCUCCUCUUAUCCU [salish99-hsa-208a-40] (Eterna round: R96, puzzle: Sensor for hsa-mir-208a) | 41.8 | 14 | 42.7 |  |  | 
CCGCCGGGAACCCGGCGGAAACAUGAGGAUCACCCAUGUACACAGGAUAUCGUGACAUUAACAAACGAGAAGGGUGGCCGAGAC [Atre] (Eterna round: R96, puzzle: Same State NG 3) | 345 | 91.6 | 137 |  |  | 
CCGCUCCGUGGAGGAUAUGGGCCUGCCCGGGAUAACGGGCCUAACACAUGAGGAUCACCCAUGUCCCAGAAGGCCGCUGGAGCC [Atxerexebe] (Eterna round: R96, puzzle: Same State NG 2) | 24.8 | 40 | 113 |  |  | 
CCGGUAAAUGGAGGAUAUGGAGCCUUAUUGGCUCCAGAAGGCUAACAUGAGGAUCACCCAUGUAUACCGGCGGUCAAUAGACCG [Eli NG1ss - 64] (Eterna round: R96, puzzle: Same State NG 1) | 11 | 16.3 | 21.8 |  |  | 
CCGGUGAUAGGGCAGGAUAUGACUGUCGUCACAUGAGGAUCACCCAUGUCCCGGCAAUGCCACCGUUAGAAGGGCCCUAUCCCGA [Teuszaesti] (puzzle: Same State 2) |  |  |  | 14.8 | 12.1 | 15
